Drawing on paper PMC6581707, this text covers stoichiometry N for two substances.

Test [1] has as its target exoPB4SF-Q5C mutant (Photobacterium sp. FC615). Kind of test: SEC; Superdex 200 10/300 GL, 10 mM Tris-HCl, 100 mM NaCl, pH 8.0, with or without 5 mM DTT; detection at 280 nm; monomer to dimer.
Test [2] addresses CS/DS 4-O-endosulfatase endoVB4SF from Vibrio sp. FC509 (Vibrio sp. FC509). The description is as above.

Turning to exoPB4SF-Q5C mutant (enzyme), in test [1], the stoichiometry N came to 2.

On to “CS/DS 4-O-endosulfatase endoVB4SF from Vibrio sp. FC509 (enzyme)”, for which, in test [2], the stoichiometry N came to 2.
